Source: patent US20240376151A1, “STAPLED PEPTIDES AND METHODS THEREOF” (FOG PHARMACEUTICALS, INC., priority 2022, published 2024)
Ends that are not written are not given here.

How the values were obtained:
Assay type in all cases: binding
CUL4B = target: T1, CUL4B (Homo sapiens, UniProt Q13620, L520D/V516R); assay: Naive Library Presenter Screening (phage, NGS), CUL4B; settings: for interaction data at Target Concentration 10: CUL4B target concentration 10 nM; for interaction data at Target Concentration 30: CUL4B target concentration 30 nM; for interaction data at Target Concentration 100: CUL4B target concentration 100 nM; for interaction data at Target Concentration 300: CUL4B target concentration 300 nM; for interaction data at Target Concentration 1000: CUL4B target concentration 1000 nM
T1 construct: GST-TEV (N, cleaved yes); made in house; host or cells: E. coli BL21 CodonPlus
T1 sequence (Q13620 206-557 V516R/L520D): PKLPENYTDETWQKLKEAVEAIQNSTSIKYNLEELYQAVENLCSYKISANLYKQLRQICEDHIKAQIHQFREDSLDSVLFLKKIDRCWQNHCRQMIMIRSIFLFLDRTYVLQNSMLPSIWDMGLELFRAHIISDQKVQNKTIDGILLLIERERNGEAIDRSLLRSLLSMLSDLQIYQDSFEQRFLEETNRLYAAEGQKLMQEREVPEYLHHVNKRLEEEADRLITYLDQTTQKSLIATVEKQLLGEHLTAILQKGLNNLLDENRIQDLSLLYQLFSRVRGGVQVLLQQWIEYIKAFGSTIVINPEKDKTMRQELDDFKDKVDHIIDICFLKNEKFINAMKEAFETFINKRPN

CUL1 = target: T2, CUL1 (Homo sapiens, UniProt Q13616, L371D/V367R); assay: Naive Library Presenter Screening (phage, NGS), CUL1; settings: for interaction data at Target Concentration 10: CUL1 target concentration 10 nM; for interaction data at Target Concentration 30: CUL1 target concentration 30 nM; for interaction data at Target Concentration 100: CUL1 target concentration 100 nM; for interaction data at Target Concentration 300: CUL1 target concentration 300 nM; for interaction data at Target Concentration 1000: CUL1 target concentration 1000 nM
T2 construct: CUL1 (Uniprot ID: Q13616, residue 15-410, V367R/L371D); GST-TEV (N, cleaved yes); made in house; host or cells: E. coli BL21 CodonPlus
T2 sequence (Q13616 15-410 V367R/L371D): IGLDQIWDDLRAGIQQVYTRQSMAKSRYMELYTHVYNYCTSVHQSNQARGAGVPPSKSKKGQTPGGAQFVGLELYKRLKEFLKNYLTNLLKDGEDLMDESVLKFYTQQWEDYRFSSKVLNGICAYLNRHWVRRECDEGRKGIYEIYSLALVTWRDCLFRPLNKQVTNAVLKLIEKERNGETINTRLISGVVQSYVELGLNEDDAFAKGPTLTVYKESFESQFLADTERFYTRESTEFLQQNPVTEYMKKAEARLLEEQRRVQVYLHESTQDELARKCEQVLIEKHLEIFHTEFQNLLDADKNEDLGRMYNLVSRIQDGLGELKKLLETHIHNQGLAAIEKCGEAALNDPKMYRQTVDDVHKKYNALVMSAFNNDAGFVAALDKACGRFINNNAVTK

CUL5 = target: T3, CUL5 (Homo sapiens, UniProt Q93034, L345D/V341R); assay: Naive Library Presenter Screening (phage, NGS), CUL5; settings: for interaction data at Target Concentration 10: CUL5 target concentration 10 nM; for interaction data at Target Concentration 30: CUL5 target concentration 30 nM; for interaction data at Target Concentration 100: CUL5 target concentration 100 nM; for interaction data at Target Concentration 300: CUL5 target concentration 300 nM; for interaction data at Target Concentration 1000: CUL5 target concentration 1000 nM
T3 construct: GST-TEV (N, cleaved yes); made in house; host or cells: E. coli BL21 CodonPlus
T3 sequence (Q93034 1-386 V341R/L345D): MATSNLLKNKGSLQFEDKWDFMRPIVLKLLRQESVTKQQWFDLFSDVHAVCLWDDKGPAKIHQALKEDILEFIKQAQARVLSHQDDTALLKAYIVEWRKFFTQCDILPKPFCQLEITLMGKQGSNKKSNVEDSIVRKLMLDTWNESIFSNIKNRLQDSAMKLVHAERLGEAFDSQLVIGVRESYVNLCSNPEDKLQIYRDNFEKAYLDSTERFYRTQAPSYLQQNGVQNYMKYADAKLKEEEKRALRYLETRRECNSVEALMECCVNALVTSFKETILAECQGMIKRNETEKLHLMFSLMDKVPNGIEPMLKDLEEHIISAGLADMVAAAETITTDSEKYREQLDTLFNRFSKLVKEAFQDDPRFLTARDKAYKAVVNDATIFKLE

Row | interaction data at Target Concentration 10 (CUL4B) | interaction data at Target Concentration 30 (CUL4B) | interaction data at Target Concentration 100 (CUL4B) | interaction data at Target Concentration 300 (CUL4B) | interaction data at Target Concentration 1000 (CUL4B; first column) | interaction data at Target Concentration 1000 (CUL4B; second column) | interaction data at Target Concentration 10 (CUL5) | interaction data at Target Concentration 30 (CUL5) | interaction data at Target Concentration 100 (CUL5) | interaction data at Target Concentration 300 (CUL5) | interaction data at Target Concentration 1000 (CUL5; first column) | interaction data at Target Concentration 1000 (CUL5; second column) | Sequence | further results
1 | 0 | 3 | 11 | 13 | 78 | 0 | – | – | – | – | – | – | DPASRMCEMAAWFCENY | –
2 | – | – | – | – | – | – | – | – | – | – | – | – | DPAEAACDIAALMCIID | interaction data at Target Concentration 10 (CUL1): 15; interaction data at Target Concentration 30 (CUL1): 13; interaction data at Target Concentration 100 (CUL1): 65; interaction data at Target Concentration 300 (CUL1): 211; interaction data at Target Concentration 1000 (CUL1; first column): 203; interaction data at Target Concentration 1000 (CUL1; second column): 195
3 | – | – | – | – | – | – | – | – | – | – | – | – | DPAEVHCDMAALYCIIR | interaction data at Target Concentration 10 (CUL1): 3; interaction data at Target Concentration 30 (CUL1): 7; interaction data at Target Concentration 100 (CUL1): 65; interaction data at Target Concentration 300 (CUL1): 242; interaction data at Target Concentration 1000 (CUL1; first column): 366; interaction data at Target Concentration 1000 (CUL1; second column): 119
4 | 4 | 15 | 139 | 319 | 251 | 0 | – | – | – | – | – | – | DPASRLCELAAWVCDSF | –
5 | 0 | 0 | 6 | 37 | 9 | 0 | – | – | – | – | – | – | DPAMNHCVLAAWVCDTF | –
6 | 0 | 0 | 1 | 31 | 9 | 0 | – | – | – | – | – | – | DPATRMCELAAWTCEVW | –
7 | 0 | 0 | 3 | 9 | 34 | 0 | – | – | – | – | – | – | DPADRQCIFAAWMCEAF | –
8 | – | – | – | – | – | – | – | – | – | – | – | – | DPAEMQCDYAAILCIVR | interaction data at Target Concentration 10 (CUL1): 0; interaction data at Target Concentration 30 (CUL1): 0; interaction data at Target Concentration 100 (CUL1): 32; interaction data at Target Concentration 300 (CUL1): 95; interaction data at Target Concentration 1000 (CUL1; first column): 114; interaction data at Target Concentration 1000 (CUL1; second column): 71
9 | – | – | – | – | – | – | 2 | 35 | 91 | 170 | 31 | 0 | DPAWFDCAEAAWQCVFI | –
10 | 0 | 0 | 47 | 20 | 12 | 0 | – | – | – | – | – | – | DPATRHCIFAAWACDRF | –
11 | – | – | – | – | – | – | 16 | 22 | 151 | 104 | – | 0 | DPAWMRCATAAWECVMT | –
12 | 0 | 10 | 0 | 6 | 11 | 2 | – | – | – | – | – | – | DPADRQCLFAAWYCEHT | –
13 | – | – | – | – | – | – | – | – | – | – | – | – | DPAVMECDWAATICDIF | interaction data at Target Concentration 10 (CUL1): 0; interaction data at Target Concentration 30 (CUL1): 2; interaction data at Target Concentration 100 (CUL1): 154; interaction data at Target Concentration 300 (CUL1): 402; interaction data at Target Concentration 1000 (CUL1; first column): 477; interaction data at Target Concentration 1000 (CUL1; second column): 419
14 | 1 | 1 | 15 | 248 | 340 | 0 | – | – | – | – | – | – | DPADRYCDMAAWVCERF | –
15 | – | – | – | – | – | – | – | – | – | – | – | – | DPAYFACDIAALMCTVH | interaction data at Target Concentration 10 (CUL1): 0; interaction data at Target Concentration 30 (CUL1): 2; interaction data at Target Concentration 100 (CUL1): 131; interaction data at Target Concentration 300 (CUL1): 135; interaction data at Target Concentration 1000 (CUL1; first column): 403; interaction data at Target Concentration 1000 (CUL1; second column): 120
16 | 0 | 0 | 0 | 99 | 29 | 0 | – | – | – | – | – | – | DPAERHCQLAAWVCHQF | –
17 | – | – | – | – | – | – | – | – | – | – | – | – | DPAIIQCDQAALWCVVT | interaction data at Target Concentration 10 (CUL1): 0; interaction data at Target Concentration 30 (CUL1): 0; interaction data at Target Concentration 100 (CUL1): 28; interaction data at Target Concentration 300 (CUL1): 83; interaction data at Target Concentration 1000 (CUL1; first column): 80; interaction data at Target Concentration 1000 (CUL1; second column): 61
18 | 0 | 0 | 0 | 48 | 9 | 0 | – | – | – | – | – | – | DPADRLCELAAWVCQSF | –
19 | – | – | – | – | – | – | 0 | 13 | 30 | 40 | 14 | 0 | DPAIQQCAEAAWSCYVE | –
20 | 0 | 0 | 0 | 6 | 17 | 0 | – | – | – | – | – | – | DPADRWCELAAWICDEF | –
21 | – | – | – | – | – | – | 1 | 167 | 267 | 385 | 368 | 0 | DPAWRACAQAAWDCIIA | –
22 | – | – | – | – | – | – | 0 | 6 | 44 | 20 | 59 | 0 | DPAWWECAEAAWQCQVL | –
23 | 0 | 0 | 15 | 31 | 18 | 0 | – | – | – | – | – | – | DPATTECILAAWICDRF | –
24 | 1 | 0 | 13 | 56 | 73 | 0 | – | – | – | – | – | – | DPAQRACQFAAWICERF | –
25 | – | – | – | – | – | – | 0 | 50 | 47 | 21 | 93 | 0 | DPAWRECAHAAWQCYIQ | –
26 | – | – | – | – | – | – | 0 | 13 | 94 | 60 | 171 | 0 | DPAWYECASAAWVCYSM | –
27 | – | – | – | – | – | – | 0 | 14 | 13 | 58 | 11 | 0 | DPAWAICAEAAWDCFMI | –
28 | – | – | – | – | – | – | 0 | 65 | – | 96 | 224 | 0 | DPAWFTCAQAAWDCVFH | –
29 | – | – | – | – | – | – | 5 | 61 | 106 | 119 | 152 | 0 | DPAWHMCAEAAWQCAFW (not fully specified (C-terminus, bridges); cysteine pairing not given here) | –
